{
  "source": "paper PMC3743950",
  "key": {"[1]": {"molecular_target": "DrP5CDHR102A (Deinococcus radiodurans)", "experiment": "SAXS + other: DLS"}, "[2]": {"molecular_target": "TtP5CDHK104A (Thermus thermophilus HB27)", "experiment": "DLS"}, "[3]": {"molecular_target": "TtP5CDHR100A (Thermus thermophilus HB27)", "experiment": "SAXS + other: DLS"}, "[4]": {"molecular_target": "TtP5CDHR100A/K104A/R111A (Thermus thermophilus HB27)", "experiment": "DLS"}, "[5]": {"molecular_target": "TtP5CDHR111A (Thermus thermophilus HB27)", "experiment": "SAXS + other: DLS"}, "[6]": {"molecular_target": "TtP5CDHR153A (Thermus thermophilus HB27)", "experiment": "DLS"}, "[7]": {"molecular_target": "Δ1-pyrroline-5-carboxylate dehydrogenase from Bacillus halodurans (Bacillus halodurans)", "experiment": "SAXS + other: DLS"}, "[8]": {"molecular_target": "Δ1-pyrroline-5-carboxylate dehydrogenase from Bacillus licheniformis (Bacillus licheniformis)", "experiment": "DLS"}, "[9]": {"molecular_target": "Δ1-pyrroline-5-carboxylate dehydrogenase from Deinococcus radiodurans (Deinococcus radiodurans)", "experiment": "SAXS + other: DLS"}, "[10]": {"molecular_target": "Δ1-pyrroline-5-carboxylate dehydrogenase from Thermus thermophilus (Thermus thermophilus HB27)", "experiment": "SAXS + other: DLS"}},
  "data": [
    {"substance": "DrP5CDHR102A (enzyme)", "values": [
      {"measurement": "stoichiometry N", "setting": "[1]", "value": 2}
    ]},
    {"substance": "TtP5CDHK104A (enzyme)", "values": [
      {"measurement": "stoichiometry N", "setting": "[2]", "value": 6}
    ]},
    {"substance": "TtP5CDHR100A (enzyme)", "values": [
      {"measurement": "stoichiometry N", "setting": "[3]", "value": 2}
    ]},
    {"substance": "TtP5CDHR100A/K104A/R111A (enzyme)", "values": [
      {"measurement": "stoichiometry N", "setting": "[4]", "value": 2}
    ]},
    {"substance": "TtP5CDHR111A (enzyme)", "values": [
      {"measurement": "stoichiometry N", "setting": "[5]", "value": 6}
    ]},
    {"substance": "TtP5CDHR153A (enzyme)", "values": [
      {"measurement": "stoichiometry N", "setting": "[6]", "value": 6}
    ]},
    {"substance": "Δ1-pyrroline-5-carboxylate dehydrogenase from Bacillus halodurans (enzyme)", "values": [
      {"measurement": "stoichiometry N", "setting": "[7]", "value": 2}
    ]},
    {"substance": "Δ1-pyrroline-5-carboxylate dehydrogenase from Bacillus licheniformis (enzyme)", "values": [
      {"measurement": "stoichiometry N", "setting": "[8]", "value": 2}
    ]},
    {"substance": "Δ1-pyrroline-5-carboxylate dehydrogenase from Deinococcus radiodurans (enzyme)", "values": [
      {"measurement": "stoichiometry N", "setting": "[9]", "value": 6}
    ]},
    {"substance": "Δ1-pyrroline-5-carboxylate dehydrogenase from Thermus thermophilus (enzyme)", "values": [
      {"measurement": "stoichiometry N", "setting": "[10]", "value": 6}
    ]}
  ]
}
